Data published in patent US20230391893A1 (published 2023).

Target: dICB-huHF
Assay: flow cytometry; LLC1 cells

B1: LLC1 (receptor)
chain: TIDTKRNISAEEGGSVILQCHFSSDTAEVTQVDWKQQDQLLAIYSVDLGWHVASVFSDRVVPGPSLGLTFQSLTMNDTGEYFCTYHTYPGGIYKGRIFLKVQESSDDRNGLAQFQTAPLG
  Kd: 32.3 nM
